# Source: patent US20080220446A1 (published 2008)
# T1: factor XII (purified human factor XII from plasma) (human, UniProt P00748 20-615)
# T1 construct: also called FXII
# T1 sequence (looked up): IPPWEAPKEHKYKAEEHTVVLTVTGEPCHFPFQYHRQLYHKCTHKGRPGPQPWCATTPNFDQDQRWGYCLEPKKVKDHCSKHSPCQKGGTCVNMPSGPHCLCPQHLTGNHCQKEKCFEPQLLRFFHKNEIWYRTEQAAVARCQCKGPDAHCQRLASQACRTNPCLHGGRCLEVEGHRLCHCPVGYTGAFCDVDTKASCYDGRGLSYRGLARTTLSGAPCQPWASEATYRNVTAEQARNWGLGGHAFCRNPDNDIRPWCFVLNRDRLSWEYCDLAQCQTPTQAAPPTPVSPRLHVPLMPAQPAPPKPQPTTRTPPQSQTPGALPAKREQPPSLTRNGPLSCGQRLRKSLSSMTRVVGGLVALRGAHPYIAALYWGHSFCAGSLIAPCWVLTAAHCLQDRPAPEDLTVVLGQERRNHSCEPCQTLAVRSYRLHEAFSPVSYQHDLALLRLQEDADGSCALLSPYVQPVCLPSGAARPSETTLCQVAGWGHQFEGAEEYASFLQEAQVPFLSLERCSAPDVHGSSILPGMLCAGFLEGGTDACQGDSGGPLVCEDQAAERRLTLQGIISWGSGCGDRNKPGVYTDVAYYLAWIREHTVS
# B1: recombinant human β2-glycoprotein I (insect cells) (other, UniProt P02749 20-345, looked up)
# chain: GRTCPKPDDLPFSTVVPLKTFYEPGEEITYSCKPGYVSRGGMRKFICPLTGLWPINTLKCTPRVCPFAGILENGAVRYTTFEYPNTISFSCNTGFYLNGADSAKCTEEGKWSPELPVCAPIICPPPSIPTFATLRVYKPSAGNNSLYRDTAVFECLPQHAMFGNDTITCTTHGNWTKLPECREVKCPFPSRPDNGFVNYPAKPTLYYKDKATFGCHDGYSLDGPEEIECTKLGNWSAMPSCKASCKVPVKKATVVYQGERVKIQEKFKNGMLHGDKVSFFCKNKEKKCSYTEDAQCIDGTIEVPKCFKEHSSLAFWKTDASDVKPC
# notes: also called recombinant β2GPI; rβ2GPI
# B2: human coagulation factor VIII (FVIII) (Aafact) (other)
# chain 1: ATRRYYLGAVELSWDYMQSDLGELPVDARFPPRVPKSFPFNTSVVYKKTLFVEFTDHLFNIAKPRPPWMGLLGPTIQAEVYDTVVITLKNMASHPVSLHAVGVSYWKASEGAEYDDQTSQREKEDDKVFPGGSHTYVWQVLKENGPMASDPLCLTYSYLSHVDLVKDLNSGLIGALLVCREGSLAKEKTQTLHKFILLFAVFDEGKSWHSETKNSLMQDRDAASARAWPKMHTVNGYVNRSLPGLIGCHRKSVYWHVIGMGTTPEVHSIFLEGHTFLVRNHRQASLEISPITFLTAQTLLMDLGQFLLFCHISSHQHDGMEAYVKVDSCPEEPQLRMKNNEEAEDYDDDLTDSEMDVVRFDDDNSPSFIQIRSVAKKHPKTWVHYIAAEEEDWDYAPLVLAPDDRSYKSQYLNNGPQRIGRKYKKVRFMAYTDETFKTREAIQHESGILGPLLYGEVGDTLLIIFKNQASRPYNIYPHGITDVRPLYSRRLPKGVKHLKDFPILPGEIFKYKWTVTVEDGPTKSDPRCLTRYYSSFVNMERDLASGLIGPLLICYKESVDQRGNQIMSDKRNVILFSVFDENRSWYLTENIQRFLPNPAGVQLEDPEFQASNIMHSINGYVFDSLQLSVCLHEVAYWYILSIGAQTDFLSVFFSGYTFKHKMVYEDTLTLFPFSGETVFMSMENPGLWILGCHNSDFRNRGMTALLKVSSCDKNTGDYYEDSYEDISAYLLSKNNAIEPRSFSQNSRHPSTRQKQFNATTIPENDIEKTDPWFAHRTPMPKIQNVSSSDLLMLLRQSPTPHGLSLSDLQEAKYETFSDDPSPGAIDSNNSLSEMTHFRPQLHHSGDMVFTPESGLQLRLNEKLGTTAATELKKLDFKVSSTSNNLISTIPSDNLAAGTDNTSSLGPPSMPVHYDSQLDTTLFGKKSSPLTESGGPLSLSEENNDSKLLESGLMNSQESSWGKNVSSTESGRLFKGKRAHGPALLTKDNALFKVSISLLKTNKTSNNSATNRKTHIDGPSLLIENSPSVWQNILESDTEFKKVTPLIHDRMLMDKNATALRLNHMSNKTTSSKNMEMVQQKKEGPIPPDAQNPDMSFFKMLFLPESARWIQRTHGKNSLNSGQGPSPKQLVSLGPEKSVEGQNFLSEKNKVVVGKGEFTKDVGLKEMVFPSSRNLFLTNLDNLHENNTHNQEKKIQEEIEKKETLIQENVVLPQIHTVTGTKNFMKNLFLLSTRQNVEGSYDGAYAPVLQDFRSLNDSTNRTKKHTAHFSKKGEEENLEGLGNQTKQIVEKYACTTRISPNTSQQNFVTQRSKR
# chain 2: EITRTTLQSDQEEIDYDDTISVEMKKEDFDIYDEDENQSPRSFQKKTRHYFIAAVERLWDYGMSSSPHVLRNRAQSGSVPQFKKVVFQEFTDGSFTQPLYRGELNEHLGLLGPYIRAEVEDNIMVTFRNQASRPYSFYSSLISYEEDQRQGAEPRKNFVKPNETKTYFWKVQHHMAPTKDEFDCKAWAYFSDVDLEKDVHSGLIGPLLVCHTNTLNPAHGRQVTVQEFALFFTIFDETKSWYFTENMERNCRAPCNIQMEDPTFKENYRFHAINGYIMDTLPGLVMAQDQRIRWYLLSMGSNENIHSIHFSGHVFTVRKKEEYKMALYNLYPGVFETVEMLPSKAGIWRVECLIGEHLHAGMSTLFLVYSNKCQTPLGMASGHIRDFQITASGQYGQWAPKLARLHYSGSINAWSTKEPFSWIKVDLLAPMIIHGIKTQGARQKFSSLYISQFIIMYSLDGKKWQTYRGNSTGTLMVFFGNVDSSGIKHNIFNPPIIARYIRLHPTHYSIRSTLRMELMGCDLNSCSMPLGMESKAISDAQITASSYFTNMFATWSPSKARLHLQGRSNAWRPQVNNPKEWLQVDFQKTMKVTGVTTQGVKSLLTSMYVKEFLISSSQDGHQWTLFFQNGKVKVFQGNQDSFTPVVNSLDPPLLTRYLRIHPQSWVHQIALRMEVLGCEAQDLY
# B3: abciximab (ReoPro) (Fab, V domains shown)
# VH: EVQLQQSGTVLARPGASVKMSCEASGYTFTNYWMHWVKQRPGQGLEWIGAIYPGNSDTSYIQKFKGKAKLTAVTSTTSVYMELSSLTNEDSAVYYCTLYDGYYVFAYWGQGTLVTVSA
# VL: EIVLTQSPVTLSVTPGDSVSLSCRASRDISNNLHWFQQTSHESPRLLIKYASQSMSGIPSRFSGSGSGTDFTLSINSVETEDFGMYFCQQTNSWPYTFGGGTKLEIK
# How the values were obtained:
# [1] = molecular target: T1, factor XII (purified human factor XII …); experiment: ELISA, factor XII immobilized, concentration series of recombinant β2GPI
# Procedure: (§1) Binding of β₂GPI was assessed with monoclonal antibody 2B2²².
# (§2) The positive control was amyloid fibrin peptide FP13. […] C. […] Eluted fractions are analyzed on Western blot after SDS-PA electrophoresis. […] Signals are corrected for background fluorescence of CL, DXS, ThT and buffer.
# [2] = molecular target: T2, tissue-type plasminogen activator (tPA) (human, UniProt P00750 36-562); experiment: ELISA, tPA coated, concentration series of recombinant β2GPI
# T2 construct: Full-length commercial tPA; also called Actilyse; Alteplase
# T2 sequence (P00750 36-562 limits assumed): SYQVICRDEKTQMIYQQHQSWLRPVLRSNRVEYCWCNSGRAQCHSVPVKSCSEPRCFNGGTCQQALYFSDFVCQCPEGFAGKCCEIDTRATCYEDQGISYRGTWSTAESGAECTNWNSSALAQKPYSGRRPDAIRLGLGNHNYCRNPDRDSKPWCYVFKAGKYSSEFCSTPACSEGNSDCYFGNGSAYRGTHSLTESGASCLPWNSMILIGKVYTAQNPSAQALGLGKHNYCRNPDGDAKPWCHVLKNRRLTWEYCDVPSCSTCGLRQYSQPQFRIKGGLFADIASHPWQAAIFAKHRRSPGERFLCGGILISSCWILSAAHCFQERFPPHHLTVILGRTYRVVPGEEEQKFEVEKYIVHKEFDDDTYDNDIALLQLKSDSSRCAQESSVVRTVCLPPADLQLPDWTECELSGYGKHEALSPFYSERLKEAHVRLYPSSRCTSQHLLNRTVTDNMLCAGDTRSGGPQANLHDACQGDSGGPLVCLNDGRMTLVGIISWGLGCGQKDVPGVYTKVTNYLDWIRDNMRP
# Procedure: as §1, §2
# [3] = molecular target: T2, tissue-type plasminogen activator (tPA); experiment: ELISA, tPA immobilized, concentration series of recombinant β2GPI
# Procedure: as §1, §2
# [4] = molecular target: T1, factor XII (purified human factor XII …); experiment: ELISA, factor XII coated, concentration series of recombinant β2GPI
# [5] = molecular target: T2, tissue-type plasminogen activator (tPA); experiment: ELISA, therapeutic coated on Nunc Immobilizer plate, concentration series of tPA, one-site binding fit
# Procedure: Plates were washed twice with Tris buffered saline pH 7.2 containing 0.1% Tween20 (TBST) and blocked with PBS containing 1% Tween20 for 1 hour at room temperature. […] Plates were washed five times with TBST and incubated with peroxidase labeled anti-mouse immunoglobulins (RAMPO; DAKOCytomation, Glostrup, Denmark) diluted 1:3000 in PBST for 30 minutes at room temperature. Plates were washed five times with PBS 0.1% Tween20, and stained with 100 μL/well of tetramethyl-benzidine (TMB) substrate (Biosource Europe, Nivelles, Belgium). The reaction was terminated with 50 μL/well of 2 M H₂SO₄ and substrate conversion was read at 450 nm on a Spectramax340 microplate reader. Curves were fitted with a one-site binding model (GraphPad Prism version 4.02 for Windows, Graphpad Software, Calif., USA) from which Kd and Bmax were determined.
Binder,Kd [1] [µg/mL],Kd [2] [nM],Kd [3] [µg/mL],Kd [4] [nM],Kd [5] [nM]
B1,0.9,51,2.3,20,
B2,,,,,230
B3,,,,,216
